Test results taken from patent US20240034774A1 (Gilead, published 2024).
Changes are numbered by the printed parent chain.

B1: 1.27.1-1 (antibody, human IgG1, kappa)
heavy: QVQLLQSGAAVTKPGASVRVSCEASGYNIRDYFIHWWRQAPGQGLQWVGWINPKTGQPNNPRQFQGRVSLTRHASWDFDTFSFYMDLKALRSDDTAVYFCARQRTDYWDFDVWGSGTQVTVSSASTKGPSVFPLAPSSKSTSGGTAALGCLVKDYFPEPVTVSWNSGALTSGVHTFPAVLQSSGLYSLSSVVTVPSSSLGTQTYICNVNHKPSNTKVDKKVEPKSCDKTHTCPPCPAPELLAGPDVFLFPPKPKDTLMISRTPEVTCVVVDVSHEDPEVKFNWYVDGVEVHNAKTKPREEQYNSTYRVVSVLTVLHQDWLNGKEYKCKVSNKALPLPEEKTISKAKGQPREPQVYTLPPSREEMTKNQVSLTCLVKGFYPSDIAVEWESNGQPENNYKTTPPVLDSDGSFFLYSKLTVDKSRWQQGNVFSCSVLHEALHSHYTQKSLSLSPGK
light: DIQMTQSPSSLSASVGDTVTITCQANGYLNWYQQRRGKAPKLLIYDGSKLERGVPSRFSGRRWGQEYNLTINNLQPEDIATYFCQVYEFVVPGTRLDLKRTVAAPSVFIFPPSDEQLKSGTASVVCLLNNFYPREAKVQWKVDNALQSGNSQESVTEQDSKDSTYSLSSTLTLSKADYEKHKVYACEVTHQGLSSPVTKSFNRGEC
B2: 1.26.1-1 (antibody, human IgG1, kappa)
heavy: B1 heavy with V97T, T105S
light: B1 light
B3: 1.17.1-1 (antibody, human IgG1, kappa)
heavy: B1 heavy with T55A, T105S
light: B1 light
B4: 1.34.1-1 (antibody, human IgG1, kappa)
heavy: B1 heavy with L5V, A10E, T12K, E23K, S69T
light: B1 light
B5: 1.32.1-1 (antibody, human IgG1, kappa)
heavy: B1 heavy with L5V, A10E
light: B1 light
B6: 1.31.34-1 (antibody, human IgG1, kappa)
heavy: B1 heavy with L5V, A10E, V97T, T105S
light: B1 light with K49N, N68T, N72S, N73S, V91T, L98I
B7: 1.33.1-1 (antibody, human IgG1, kappa)
heavy: B1 heavy with L5V, A10E, T12K, E23K, S69T, V97T, T105S
light: B1 light
B8: 1.29.1-1 (antibody, human IgG1, kappa)
heavy: B1 heavy with T105S, S115Q
light: B1 light
B9: 1.32.33-1 (antibody, human IgG1, kappa)
heavy: B1 heavy with L5V, A10E
light: B1 light with K49N, N68T, N72S, N73S, R95N, L98I
B10: 1.30.1-1 (antibody, human IgG1, kappa)
heavy: B1 heavy with T105S, Q118M
light: B1 light
B11: 1.24.1-1 (antibody, human IgG1, kappa)
heavy: B1 heavy with Y84S, T105S
light: B1 light
B12: 1.21.1-1 (antibody, human IgG1, kappa)
heavy: B1 heavy with H73D, T105S
light: B1 light
B13: 1.33.33-1 (antibody, human IgG1, kappa)
heavy: B1 heavy with L5V, A10E, T12K, E23K, S69T, V97T, T105S
light: B1 light with K49N, N68T, N72S, N73S, R95N, L98I
B14: 1.32.34-1 (antibody, human IgG1, kappa)
heavy: B1 heavy with L5V, A10E
light: B1 light with K49N, N68T, N72S, N73S, V91T, L98I
B15: 1.20.1-1 (antibody, human IgG1, kappa)
heavy: B1 heavy with S69T, L70M, T105S
light: B1 light
B16: 1.33.31-1 (antibody, human IgG1, kappa)
heavy: B1 heavy with L5V, A10E, T12K, E23K, S69T, V97T, T105S
light: B1 light with N68T, N72S, N73S, R95N

Tests used:
BSA = BSA (UniProt P02769 25-607); assay: single-point ELISA, BSA control
gp120 SHIV SF162 P3 = gp120 SHIV SF162 P3 (SHIV SF162 P3); assay: single-point ELISA at EC50 conc. of A-1
gp120 CAAN = gp120 CAAN (HIV (CAAN)); assay: single-point ELISA at EC50 conc. of A-1
gp120 Bal = gp120 Bal (HIV (Bal)); assay: single-point ELISA at EC50 conc. of A-1

Binder | ELISA A450 (BSA) [A450] | ELISA A450 (gp120 SHIV SF162 P3) [A450] | ELISA A450 (gp120 CAAN) [A450] | ELISA A450 (gp120 Bal) [A450]
B1 | 0.07 | 0.86 | 0.86 | 0.86
B2 | 0.06 | 0.94 | 1 | 0.81
B3 | 0.06 | 0.31 | 0.7 | 0.84
B4 | 0.07 | 0.79 | 0.9 | 0.83
B5 | 0.06 | 0.91 | 0.83 | 0.93
B6 | 0.06 | 0.82 | 0.86 | 0.76
B7 | 0.06 | 0.96 | 0.98 | 0.88
B8 | 0.06 | 0.98 | 1.08 | 1.03
B9 | 0.06 | 0.71 | 0.68 | 0.93
B10 | 0.06 | 1.03 | 1.05 | 0.81
B11 | 0.06 | 1.09 | 0.9 | 0.98
B12 | 0.07 | 0.82 | 0.77 | 0.87
B13 | 0.07 | 0.97 | 1.06 | 1.09
B14 | 0.06 | 0.71 | 0.86 | 0.81
B15 | 0.06 | 0.91 | 0.8 | 0.89
B16 | 0.07 | 0.89 | 1.18 | 0.92
